According to paper PMC8577158, “Phylogenetic analysis and in-depth characterization of functionally and structurally diverse CE5 cutinases” (The Journal of Biological Chemistry, 2021):

Tests used:
[1] = molecular target: T1, FsCut (Fusarium vanettenii, UniProt P00590); test: pNP release at […] nm, nonlinear Michaelis-Menten fit; conditions: read-out: FsCut; 50 mM sodium phosphate pH 7, 40 °C
T1 construct: gene CUT1

[2] = system: CCCCCCCC(=O)Oc1ccc([N+](=O)[O-])cc1; test: purified protein; conditions: 50 mM sodium phosphate pH 7, 40 °C
[3] = system: CCCCCCCCCCCC(=O)Oc1ccc([N+](=O)[O-])cc1; test: purified protein; conditions: 50 mM sodium phosphate pH 7, 40 °C
[4] = system: CCCCCCCCCCCCCCCC(=O)Oc1ccc([N+](=O)[O-])cc1; test: purified protein; conditions: 50 mM sodium phosphate pH 7, 40 °C
[5] = system: CCCC(=O)Oc1ccc([N+](=O)[O-])cc1; test: purified protein; conditions: 50 mM sodium phosphate pH 7, 40 °C
[6] = substrate: CCCCCCCCCCCCCCCC(=O)Oc1ccc([N+](=O)[O-])cc1; test: purified protein; format: biochemical, Thermothielavioides terrestris; conditions: 50 mM sodium phosphate pH 7, 40 °C
[7] = substrate: CCCCCCCC(=O)Oc1ccc([N+](=O)[O-])cc1; test: purified protein; format: biochemical, Thermothielavioides terrestris; conditions: 50 mM sodium phosphate pH 7, 40 °C
[8] = substrate: CCCC(=O)Oc1ccc([N+](=O)[O-])cc1; test: purified protein; format: biochemical, Thermothielavioides terrestris; conditions: 50 mM sodium phosphate pH 7, 40 °C
[9] = substrate: CCCCCCCCCCCC(=O)Oc1ccc([N+](=O)[O-])cc1; test: purified protein; format: biochemical, Thermothielavioides terrestris; conditions: 50 mM sodium phosphate pH 7, 40 °C
[10] = substrate: CCCCCCCCCCCCCCCC(=O)Oc1ccc([N+](=O)[O-])cc1; test: purified protein; format: biochemical, Cryptococcus sp. S-2; conditions: 50 mM sodium phosphate pH 7, 40 °C
[11] = substrate: CCCCCCCC(=O)Oc1ccc([N+](=O)[O-])cc1; test: purified protein; format: biochemical, Cryptococcus sp. S-2; conditions: 50 mM sodium phosphate pH 7, 40 °C
[12] = substrate: CCCC(=O)Oc1ccc([N+](=O)[O-])cc1; test: purified protein; format: biochemical, Cryptococcus sp. S-2; conditions: 50 mM sodium phosphate pH 7, 40 °C
[13] = substrate: CCCCCCCCCCCC(=O)Oc1ccc([N+](=O)[O-])cc1; test: purified protein; format: biochemical, Cryptococcus sp. S-2; conditions: 50 mM sodium phosphate pH 7, 40 °C
[14] = substrate: CCCCCCCCCCCCCCCC(=O)Oc1ccc([N+](=O)[O-])cc1; test: purified protein; format: biochemical, Coprinopsis cinerea; conditions: 50 mM sodium phosphate pH 7, 40 °C
[15] = substrate: CCCCCCCC(=O)Oc1ccc([N+](=O)[O-])cc1; test: purified protein; format: biochemical, Coprinopsis cinerea; conditions: 50 mM sodium phosphate pH 7, 40 °C
[16] = substrate: CCCC(=O)Oc1ccc([N+](=O)[O-])cc1; test: purified protein; format: biochemical, Coprinopsis cinerea; conditions: 50 mM sodium phosphate pH 7, 40 °C
[17] = substrate: CCCCCCCCCCCC(=O)Oc1ccc([N+](=O)[O-])cc1; test: purified protein; format: biochemical, Coprinopsis cinerea; conditions: 50 mM sodium phosphate pH 7, 40 °C

T1 sequence (P00590 32-230): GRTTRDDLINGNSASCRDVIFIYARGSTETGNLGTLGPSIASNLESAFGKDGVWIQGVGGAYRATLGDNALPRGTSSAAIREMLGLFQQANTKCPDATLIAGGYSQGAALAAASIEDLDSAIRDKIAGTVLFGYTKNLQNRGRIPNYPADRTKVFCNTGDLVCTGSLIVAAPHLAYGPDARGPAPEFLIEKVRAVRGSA

CCCC(=O)Oc1ccc([N+](=O)[O-])cc1 [pNP-C4]
Km [1]: 1670 ± 40 µM

FsCut (Fusarium vanettenii)
Km [2]: 720 ± 10 µM | kcat [2]: 6.69 ± 0.24 s⁻¹ | kcat/Km [2]: 9250 ± 260 M⁻¹ s⁻¹ | Km [3]: 50 ± 10 µM | kcat [3]: 1.22 ± 0.03 s⁻¹ | kcat/Km [3]: 22800 ± 2090 M⁻¹ s⁻¹ | Km [4]: 10 ± 0 µM | kcat [4]: 0.15 s⁻¹ | kcat/Km [4]: 10600 ± 1060 M⁻¹ s⁻¹

PbCut (Pyrenopeziza brassicae)
Km [2]: 540 ± 70 µM | kcat [2]: 1.43 ± 0.09 s⁻¹ | kcat/Km [2]: 2650 ± 190 M⁻¹ s⁻¹ | Km [3]: 80 ± 10 µM | kcat [3]: 0.2 s⁻¹ | kcat/Km [3]: 2500 ± 180 M⁻¹ s⁻¹ | Km [4]: 40 ± 10 µM | kcat [4]: 0.08 s⁻¹ | kcat/Km [4]: 2070 ± 250 M⁻¹ s⁻¹ | Km [5]: 1710 ± 170 µM | kcat [5]: 6.45 ± 0.52 s⁻¹ | kcat/Km [5]: 3790 ± 70 M⁻¹ s⁻¹

B1: TtCut (Thermothielavioides terrestris NRRL 8126) (protein)
chain: APTQPAGEAAVEARQLFSDTANDLENGVSSNCPKVIFICARGSTETGNLGSSVCPEVANGLKNYYPNQLWVQGVGGAYTADLASNALPGGTSTAAMQEAANMFNLAQQKCPNASVAAGGYSQGTAVVAGGIQSLSAAAKDQIKGVVLFGYTQAQQNHDTIPNFPVDKTMIFCAQGDLVCNGTLIVTAAHFSYITNGDASTKGPAWLHEKIGDA
Km [6]: 500 ± 90 µM | Km [7]: 390 ± 10 µM | kcat [7]: 2.3 ± 0.06 s⁻¹ | kcat/Km [7]: 5810 ± 50 M⁻¹ s⁻¹ | Km [8]: 7080 ± 90 µM | Km [9]: 210 ± 0 µM

B2: CspCut (Cryptococcus sp. S-2) (protein)
chain: ATSSACPQYVLINTRGTGEPQGQSAGFRTMNSQITAALSGGTIYNTVYTADFSQNSAAGTADIIRRINSGLAANPNVCYILQGYSQGAAATVVALQQLGTSGAAFNAVKGVFLIGNPDHKSGLTCNVDSNGGTTTRNVNGLSVAYQGSVPSGWVSKTLDVCAYGDGVCDTAHGFGINAQHLSYPSDQGVQTMGYKFAVNKLGGSA
Km [10]: 50 ± 0 µM | kcat [10]: 3.38 ± 0.12 s⁻¹ | kcat/Km [10]: 70700 ± 6470 M⁻¹ s⁻¹ | Km [11]: 50 ± 0 µM | kcat [11]: 3.81 ± 0.27 s⁻¹ | kcat/Km [11]: 83200 ± 4200 M⁻¹ s⁻¹ | Km [12]: 5540 ± 500 µM | kcat [12]: 13.5 ± 0.25 s⁻¹ | kcat/Km [12]: 2510 ± 270 M⁻¹ s⁻¹ | Km [13]: 50 ± 0 µM | kcat [13]: 3.49 ± 0.06 s⁻¹ | kcat/Km [13]: 65970 ± 600 M⁻¹ s⁻¹

B3: CcCut (Coprinopsis cinerea) (protein)
chain: QLFCRDVYVFFARGTGEVGTLGTVVGPGLSAAVKLAVRDSVEFEGIDYPALVSGYLAGGDRGGARTMANKVSQTASRCPNAKIFISGYSQGAQVTHLAARQLSAADQARVTGVVTFGDPYRDDALPGGLQSRRKTYCNVGDLICAGLPTLLAPHFTYGSDTPDAARWIAARV
Km [14]: 2900 ± 200 µM | Km [15]: 1670 ± 180 µM | Km [16]: 3560 ± 150 µM | kcat [16]: 8.96 ± 0.39 s⁻¹ | kcat/Km [16]: 2520 M⁻¹ s⁻¹ | Km [17]: 2760 ± 50 µM
